Experiments:
[1] = target: the molecule itself; assay: SEC; Superdex 75 pg 16/600, 20 mM HEPES, 150 mM NaCl, 5% glycerol, pH 7.4; SMS dimers at Ve ~70 mL
[2] = target: T1, MyoVa-GTD, wild type (globular tail domain of myosin Va) (human, UniProt Q9Y4I1 1448-1855); assay: MST; Monolith NT.115, LED power 40%, MST power 60%; 50 nM His-tagged SMS labelled with RED-tris-NTA, serial dilution of MyoVa-GTD; 20 mM HEPES, 150 mM NaCl, 5% glycerol, pH 7.4; triplicate; Hill fit; conditions: both partners purified
T1 construct: Myosin Va, human, wild-type globular tail domain; limits are printed only for the EE two-hybrid construct (1448-1855 of NP_000250.3); In pET28a-TEV; Limits probably 1448-1855 as for the EE construct; also called TEV-treated MyoVa-GTD; source: E. coli BL21(DE3)∆SlyD pRARE2, purified (HiTrap Chelating, TEV cleavage, Superdex 200)
T1 sequence (Q9Y4I1 1448-1855): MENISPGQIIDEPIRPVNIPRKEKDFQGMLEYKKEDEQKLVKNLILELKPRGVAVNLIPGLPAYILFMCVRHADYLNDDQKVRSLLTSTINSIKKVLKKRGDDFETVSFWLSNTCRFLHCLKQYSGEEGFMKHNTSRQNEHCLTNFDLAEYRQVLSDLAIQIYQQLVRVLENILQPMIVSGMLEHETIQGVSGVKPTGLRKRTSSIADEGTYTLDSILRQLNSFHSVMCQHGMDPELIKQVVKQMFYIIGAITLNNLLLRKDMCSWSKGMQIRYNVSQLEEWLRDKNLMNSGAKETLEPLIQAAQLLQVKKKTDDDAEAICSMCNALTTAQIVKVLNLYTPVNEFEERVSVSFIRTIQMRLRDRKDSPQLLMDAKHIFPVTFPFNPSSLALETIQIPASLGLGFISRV

B1: Spermine synthase (SMS), full length, His-tagged (enzyme, human, UniProt P52788-1 1-366, looked up)
chain: MAAARHSTLDFMLGAKADGETILKGLQSIFQEQGMAESVHTWQDHGYLATYTNKNGSFANLRIYPHGLVLLDLQSYDGDAQGKEEIDSILNKVEERMKELSQDSTGRVKRLPPIVRGGAIDRYWPTADGRLVEYDIDEVVYDEDSPYQNIKILHSKQFGNILILSGDVNLAESDLAYTRAIMGSGKEDYTGKDVLILGGGDGGILCEIVKLKPKMVTMVEIDQMVIDGCKKYMRKTCGDVLDNLKGDCYQVLIEDCIPVLKRYAKEGREFDYVINDLTAVPISTSPEEDSTWEFLRLILDLSMKVLKQDGKYFTQGNCVNLTEALSLYEEQLGRLYCPVEFSKEIVCVPSYLELWVFYTVWKKAKP
modifications: RED-tris-NTA dye label on the His-tag (in the MST assay)
notes: Spermine synthase, human, full-length ORF (NM_004595.4, 253-1353 pb) amplified from a human cDNA library; In pET28a-TEV; the fractions with SMS dimers were used in MST; also called 6xHis-SMS; His-tagged-labeled-SMS; source: E. coli BL21(DE3)∆SlyD pRARE2, purified (HiTrap Chelating, Superdex 75)
stoichiometry N [1]: 2 | Kd [2]: 3.5 ± 0.5 µM
